# PMC5605572, “Phosphorylation of Suppressor of Hairless impedes its DNA-binding activity”
# Experiments:
# Settings in all cases: protein: ivt; label: radiolabelled (EMSA); 5' overhang 4 nt on each strand
# Su(H) R266H = Su(H) R266H (Drosophila melanogaster, UniProt P28159 1-594, R266H); experiment: EMSA; EMSA: 10 mM Tris-HCl pH 7.5, 50 mM NaCl, 1 mM EDTA, 0.0275 ug/ul salmon sperm DNA; ITC: 50 mM sodium phosphate pH 6.5, 150 mM NaCl, 10 C, 10 uM Su(H) in cell, 100 uM DNA in syringe
# Su(H) wt = Su(H) wt (Drosophila melanogaster, UniProt P28159 1-594); experiment: EMSA; self-competition with unlabelled oligo; EMSA: 10 mM Tris-HCl pH 7.5, 50 mM NaCl, 1 mM EDTA, 0.0275 ug/ul salmon sperm DNA; ITC: 50 mM sodium phosphate pH 6.5, 150 mM NaCl, 10 C, 10 uM Su(H) in cell, 100 uM DNA in syringe
# Su(H) S269A = Su(H) S269A (Drosophila melanogaster, UniProt P28159 1-594, S269A); experiment: EMSA; no obvious difference from wt; self-competition with unlabelled oligo; EMSA: 10 mM Tris-HCl pH 7.5, 50 mM NaCl, 1 mM EDTA, 0.0275 ug/ul salmon sperm DNA; ITC: 50 mM sodium phosphate pH 6.5, 150 mM NaCl, 10 C, 10 uM Su(H) in cell, 100 uM DNA in syringe
# Chain of Su(H) S269A (P28159 whole entry S269A): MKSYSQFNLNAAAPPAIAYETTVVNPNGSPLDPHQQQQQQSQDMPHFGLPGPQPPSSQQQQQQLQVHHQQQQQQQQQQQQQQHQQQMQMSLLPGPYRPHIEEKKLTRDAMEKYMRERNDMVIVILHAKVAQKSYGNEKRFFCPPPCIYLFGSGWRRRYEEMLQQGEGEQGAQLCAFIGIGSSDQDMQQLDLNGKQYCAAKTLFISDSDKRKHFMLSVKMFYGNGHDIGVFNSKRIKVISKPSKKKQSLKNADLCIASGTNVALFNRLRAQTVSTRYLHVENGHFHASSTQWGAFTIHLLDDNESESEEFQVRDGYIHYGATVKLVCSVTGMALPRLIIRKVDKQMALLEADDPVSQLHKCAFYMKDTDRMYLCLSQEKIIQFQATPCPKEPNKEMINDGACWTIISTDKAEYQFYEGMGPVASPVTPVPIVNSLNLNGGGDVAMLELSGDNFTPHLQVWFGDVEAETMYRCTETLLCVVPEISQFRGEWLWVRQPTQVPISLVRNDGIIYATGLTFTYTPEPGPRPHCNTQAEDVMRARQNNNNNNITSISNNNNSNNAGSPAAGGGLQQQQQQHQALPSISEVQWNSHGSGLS
# Chain of Su(H) wt (P28159 whole entry): as the sequence (P28159 whole entry S269A) above, with A269S counted along it
# Chain of Su(H) R266H (P28159 whole entry R266H): as the sequence (P28159 whole entry S269A) above, with R266H, A269S counted along it
binder,measurement,setting,value
E(spl)m8-S1 (dsDNA) DNA 1: TTGGGTGGCTCGTGGCGTGGGAACCGAGCTGAAAG DNA 2: GGTTCTTTCAGCTCGGTTCCCACGCCACGAGCCAC,binding result,Su(H) R266H,no binding
same,binding result,Su(H) wt,binds
same,binding result,Su(H) S269A,binds
